Among the data in the Immune Epitope Database (IEDB) are Kd values, retold here.

Assay [1] addresses HLA-B*15:01. Nature of the assay: IEDB peptide-MHC binding, purified MHC/direct/fluorescence; filed as Kd, often an IC50 or EC50 that approximates it; ≥ and ≤ were set here for values at or beyond the usual limits of such assays. The conditions noted are these: source organism: Influenza A virus (A/Puerto Rico/8/34/Mount Sinai(H1N1)).
Assay [2] has as its target HLA-B*40:01. Described as above. The conditions noted are these: source organism: Influenza A virus (A/equine/Massachussetts/213/2003(H3N8)).
Assay [3] concerns the target HLA-A*69:01. Described as above. Conditions: source organism: Influenza A virus (A/equine/Massachussetts/213/2003(H3N8)).
Assay [4] concerns the target HLA-B*15:09. The description is as above. Conditions: source organism: Influenza A virus(A/swine/Henan/8/2004(H9N2)).
The target in assay [5] is HLA-A*01:01. The assay is described as above. The conditions noted are these: source organism: Influenza A virus (A/equine/Massachussetts/213/2003(H3N8)).
The target in assay [6] is HLA-B*46:01. Described as above. Conditions: source organism: Influenza A virus (A/equine/Massachussetts/213/2003(H3N8)).
For assay [7], the target named is HLA-B*07:02. The description is as above. Conditions: source organism: Influenza A virus (A/equine/Massachussetts/213/2003(H3N8)).
Assay [8] addresses HLA-A*11:01. The description is as above. Conditions: source organism: Influenza A virus (A/equine/Massachussetts/213/2003(H3N8)).
Assay [9] deals with HLA-B*18:01. The description is as above. The conditions noted are these: source organism: Influenza A virus (A/equine/Massachussetts/213/2003(H3N8)).
For assay [10], the target named is HLA-A*03:01. The description is as above.
For assay [11], the target named is HLA-B*58:01. The description is as above. Conditions: source organism: Influenza A virus (A/equine/Massachussetts/213/2003(H3N8)).
The target in assay [12] is HLA-A*31:01. Described as above. Conditions: source organism: Influenza A virus (A/equine/Massachussetts/213/2003(H3N8)).
The target in assay [13] is HLA-A*24:02. Described as above. Conditions: source organism: Influenza A virus (A/equine/Massachussetts/213/2003(H3N8)).
The target in assay [14] is HLA-A*02:01. The description is as above.
For assay [15], the target named is HLA-B*27:05. Described as above. Conditions: source organism: Influenza A virus (A/equine/Massachussetts/213/2003(H3N8)).
The target of assay [16] is HLA-A*24:03. Briefly: IEDB peptide-MHC binding, purified MHC/competitive/fluorescence; filed as Kd, often an IC50 or EC50 that approximates it; ≥ and ≤ were set here for values at or beyond the usual limits of such assays.
Assay [17] addresses HLA-C*12:03. Briefly: IEDB peptide-MHC binding, purified MHC/direct/fluorescence; filed as Kd, often an IC50 or EC50 that approximates it; ≥ and ≤ were set here for values at or beyond the usual limits of such assays. The conditions noted are these: source organism: Bacillus anthracis str. A0488.
In assay [18] the target is HLA-C*04:01. Described as above.
The target of assay [19] is HLA-B*15:01. Briefly: IEDB peptide-MHC binding, purified MHC/competitive/fluorescence; filed as Kd, often an IC50 or EC50 that approximates it; ≥ and ≤ were set here for values at or beyond the usual limits of such assays. The conditions noted are these: source organism: Yersinia pestis Nepal516.
The target in assay [20] is HLA-A*32:07. Described as above.
Assay [21] deals with HLA-A*32:15. The assay is described as above.
Assay [22] concerns the target HLA-B*35:01. Described as above. The conditions noted are these: source organism: Yersinia pestis Nepal516.
Assay [23] has as its target HLA-B*40:13. The description is as above.
Assay [24] concerns the target HLA-B*83:01. Described as above.
In assay [25] the target is HLA-C*04:01. The description is as above.
The target of assay [26] is HLA-C*14:02. The description is as above.
Assay [27] deals with HLA-B*45:06. The description is as above.
Assay [28] deals with HLA-B*15:42. The description is as above.
Assay [29] has as its target HLA-A*68:23. Described as above.
Assay [30] concerns the target HLA-C*15:02. Nature of the assay: IEDB peptide-MHC binding, purified MHC/direct/fluorescence; filed as Kd, often an IC50 or EC50 that approximates it; ≥ and ≤ were set here for values at or beyond the usual limits of such assays. Conditions: source organism: Yersinia pestis Nepal516.
The target in assay [31] is HLA-C*06:02. Described as above.
Assay [32] addresses HLA-A*03:01. Briefly: IEDB peptide-MHC binding, purified MHC/competitive/fluorescence; filed as Kd, often an IC50 or EC50 that approximates it; ≥ and ≤ were set here for values at or beyond the usual limits of such assays. The conditions noted are these: source organism: Cryptosporidium parvum Iowa II.
In assay [33] the target is HLA-B*39:01. Described as above. Conditions: source organism: Escherichia coli str. K-12 substr. MG1655.
Assay [34] addresses HLA-B*27:20. The description is as above. The conditions noted are these: source organism: Burkholderia mallei SAVP1.
Assay [35] has as its target HLA-B*48:01. Described as above. Conditions: source organism: Burkholderia mallei SAVP1.
Assay [36] deals with HLA-A*03:19. The description is as above. Conditions: source organism: Orthohantavirus sinnombreense.
Assay [37] addresses HLA-B*18:01. The assay is described as above. Conditions: source organism: Orthohantavirus sinnombreense.
Assay [38] addresses HLA-B*27:03. The description is as above. The conditions noted are these: source organism: Orthohantavirus sinnombreense.
The target of assay [39] is HLA-C*06:02. The description is as above. Conditions: source organism: Orthohantavirus sinnombreense.
The target in assay [40] is HLA-A*26:01. The assay is described as above. The conditions noted are these: source organism: Orthohantavirus sinnombreense.
In assay [41] the target is HLA-B*51:01. Described as above. The conditions noted are these: source organism: Orthohantavirus sinnombreense.
In assay [42] the target is HLA-C*05:01. Nature of the assay: IEDB peptide-MHC binding, purified MHC/direct/fluorescence; filed as Kd, often an IC50 or EC50 that approximates it; ≥ and ≤ were set here for values at or beyond the usual limits of such assays. The conditions noted are these: source organism: Orthohantavirus sinnombreense.
Where [43] appears, read: source organism: Influenza A virus (A/equine/Massachussetts/213/2003(H3N8)).
[44] abbreviates: source organism: Bacillus anthracis str. A0488.
[45] abbreviates: source organism: Yersinia pestis Nepal516.
Where [46] appears, read: source organism: Cryptosporidium parvum Iowa II.
Where [47] appears, read: source organism: Escherichia coli str. K-12 substr. MG1655.
The mark [48] stands for this setting: source organism: Burkholderia mallei SAVP1.
Setting [49] is: source organism: Orthohantavirus sinnombreense.

Broadly, the Kd is a measure of binding affinity in units of concentration.

Take ILKGKFQTA: the dissociation constant Kd in assay [1] was 5720 nM; in assay [2] it was no less than 20000 nM; in [3], no less than 20000 nM; in [4], no less than 20000 nM; in assay [5] it was no less than 20000 nM; in [6], no less than 20000 nM. Also, the Kd in assay [7], in assay [8], in assay [9], in [10] (setting [43]), in assay [11] and in assay [12] was no less than 20000 nM in each case. Also, the Kd in assay [13], in assay [14] (setting [43]) and in [15] was no less than 20000 nM throughout.
Consider YFIFVRAIL, for which the values for the Kd in assay [16] (setting [44]), in [17] and in assay [18] (setting [44]) were 36.7 nM, 436 nM and no less than 20000 nM, respectively.
For MMMSTAVAF, the Kd in assay [19] was 541 nM; in [20] (setting [45]), 94.5 nM; in assay [21] (setting [45]), 248 nM; in [22], 0.6 nM; in assay [23] (setting [45]), 365 nM; in assay [24] (setting [45]), no less than 5000 nM. In addition, the Kd in [25] (setting [45]) was 3230 nM; in [26] (setting [45]) it was 1.1 nM; in [27] (setting [45]), no less than 5000 nM; in [28] (setting [45]), no less than 5000 nM; in assay [29] (setting [45]), 650 nM; in [30], no less than 20000 nM. This sequence also gave a Kd in assay [31] (setting [45]) of no less than 20000 nM.
Take VGYYTFHPK: the Kd in [24] (setting [46]) was no less than 5000 nM; in assay [25] (setting [46]) it was no less than 5000 nM; in assay [32], 0.9 nM; in [27] (setting [46]), no less than 5000 nM; in assay [28] (setting [46]) it was no less than 5000 nM.
For the sequence RYDKSAADL, the Kd in assay [16] (setting [47]) was 474 nM; in assay [33], no less than 20000 nM; in [18] (setting [47]), no less than 20000 nM.
RQYERYTAL: the Kd in assay [20] (setting [48]) was 7.5 nM; in assay [23] (setting [48]) it was 37.7 nM; in [34] it was 0.3 nM; in assay [24] (setting [48]), no less than 5000 nM; in assay [35] it was 55.2 nM; in assay [27] (setting [48]), no less than 5000 nM. In addition, the Kd in [28] (setting [48]) worked out at 733 nM; in [31] (setting [48]) it was 1810 nM.
Take YTFTSLFSL: the Kd is 856 nM in [20] (setting [49]); 3070 nM in [36]; 82.2 nM in assay [21] (setting [49]); no less than 20000 nM in assay [37]; no less than 5000 nM in [24] (setting [49]); 5.8 nM in assay [26] (setting [49]). In addition, the Kd in assay [38] was no less than 20000 nM; in assay [27] (setting [49]) it was no less than 5000 nM; in assay [28] (setting [49]) it was no less than 5000 nM; in [39], 146 nM; in assay [40], no less than 20000 nM; in assay [41], no less than 20000 nM. Further, the Kd is 14.2 nM in assay [29] (setting [49]), no less than 20000 nM in [42], no less than 20000 nM in assay [10] (source organism: Limestone Canyon virus) and 1.5 nM in [14] (source organism: Itapua hantavirus).
